In this data set the test system is CC(=O)N[C@H]1[C@H]([C@H](O)[C@H](O)CO)O[C@](OP(=O)(O)OC[C@H]2O[C@@H](n3ccc(N)nc3=O)[C@H](O)[C@@H]2O)(C(=O)O)C[C@@H]1O. Put plainly: purified protein. The note with it: 0.5 mM GD3-FCHASE acceptor, 50 mM HEPES pH 7.5, 10 mM MgCl2, 30°C, CMP-Neu5Ac varied 0.25-20 mM.

As a reminder, the Km is the substrate concentration at which the rate is half of its maximum. A word on the Vmax: it is the top rate of the reaction or transport when substrate is in excess.

Consider “PSTMh (MalE-Δ20PSTMh) (Mannheimia haemolytica)”, for which the Km was 1100 ± 50 µM and the Vmax worked out at 1520 µmol/min/mg.

(Values after PMC3724679, “Biochemical Characterization of a Polysialyltransferase from Mannheimia haemolytica A2 and Comparison to Other Bacterial Polysialyltransferases” (PLoS ONE, 2013).)
